Experiments:
HSA = molecular target: T1, HSA (Homo sapiens); experiment: ELISA on human serum albumin
T1 construct: off-target control antigen; also called human serum albumin

Lambda = molecular target: T2, Lambda; experiment: ELISA on human lambda protein
T2 construct: off-target control antigen; also called human lambda protein

BVP = molecular target: T3, BVP; experiment: ELISA on baculovirus protein extract (BVP)
T3 construct: polyreactivity control; a protein mixture; also called Baculo Virus Protein Extract; baculovirus protein
Description: Off-target binding to Baculo Virus Protein Extract (BVP) was conducted by ELISA as above, with the modification of using 1×PBS and 1% dry milk powder for the diluent. BVP extract was obtained from INSERM (Nantes, France).

[1] = molecular target: T4, human B-Cell Maturation Antigen (BCMA) (human, UniProt Q02223 1-54, limits assumed); experiment: BioLayer Interferometry, Octet QK384, kinetics mode
T4 construct: also called CD269; TNFRSF17
T4 sequence (looked up): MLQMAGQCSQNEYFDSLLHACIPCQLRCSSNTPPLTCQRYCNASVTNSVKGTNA
Description: (§1) As used herein, the “Kd” or “Kd value” refers to a dissociation constant determined by BioLayer Interferometry, using an Octet QK384 instrument (Fortebio Inc., Menlo Park, Calif.) in kinetics mode. For example, anti-mouse Fc sensors are loaded with mouse-Fc fused antigen and then dipped into antibody-containing wells to measure concentration dependent association rates (kon). Antibody dissociation rates (koff) are measured in the final step, where the sensors are dipped into wells containing buffer only. The Kd is the ratio of koff/kon.

[2] = molecular target: T4, human B-Cell Maturation Antigen (BCMA); experiment: BioLayer Interferometry, Octet QK384, kinetics mode; bivalent form
Description: as §1

IgG1k = molecular target: T5, IgG1k; experiment: ELISA, UniAb captures human IgG1 kappa, detection goat anti-human kappa HRP
T5 construct: off-target control antigen; also called human IgG1 kappa protein

[3] = molecular target: T4, human B-Cell Maturation Antigen (BCMA); experiment: ELISA, supernatant UniAb on human BCMA ECD (Abcam ab50089), detection goat anti-human IgG HRP
Description: Supernatants of 6 antibodies were tested for binding in a standard ELISA assay to a human BCMA. Binding to recombinant BCMA protein was determined by ELISA using human BCMA ECD obtained from Abcam (ab50089). The BCMA ECD protein was used at a concentration of 2 μg/mL to capture UniAbs at 50 ng/mL. […] All antibodies were diluted in 1×TBS with 0.05% Tween-20 and 1% dry milk powder.

[4] = molecular target: T4, human B-Cell Maturation Antigen (BCMA); experiment: BioLayer Interferometry, Octet QK384, kinetics mode; monovalent form
Description: as §1

T1 sequence (P02768 25-609): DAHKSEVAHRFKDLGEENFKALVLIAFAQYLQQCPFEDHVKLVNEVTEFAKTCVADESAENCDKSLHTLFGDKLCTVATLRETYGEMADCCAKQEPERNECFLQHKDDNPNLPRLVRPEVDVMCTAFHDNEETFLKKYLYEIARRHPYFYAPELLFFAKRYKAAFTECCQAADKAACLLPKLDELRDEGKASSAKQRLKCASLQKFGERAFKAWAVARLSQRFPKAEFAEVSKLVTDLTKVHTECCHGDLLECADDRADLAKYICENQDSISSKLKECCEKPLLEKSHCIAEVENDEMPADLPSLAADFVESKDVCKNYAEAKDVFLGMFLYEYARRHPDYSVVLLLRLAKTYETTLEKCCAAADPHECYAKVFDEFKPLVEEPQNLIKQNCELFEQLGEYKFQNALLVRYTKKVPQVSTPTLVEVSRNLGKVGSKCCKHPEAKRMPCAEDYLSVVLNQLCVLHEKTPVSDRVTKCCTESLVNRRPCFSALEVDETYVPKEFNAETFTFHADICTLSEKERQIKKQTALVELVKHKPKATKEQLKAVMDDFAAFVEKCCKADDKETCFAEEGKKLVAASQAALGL

B1: anti-BCMA heavy chain-only antibody 308902, bivalent form (antibody, V domains shown)
VH: EVQLLESGGGLVQPGGSLRLSCAASGFTVSSYGMSWVRQAPGKGPEWVSGIRGSDGSTYYADSVKGRFTISRDNSKNTLYLQMNSLRAEDTAVYYCAKQGENDGPFDHRGQGTLVTVSS
notes: Heavy chain-only antibody with no light chain; UniAbs were expressed in HEK cells with CH1 deleted; also called UniAb 308902 (bivalent)
ELISA Binding Ratio (expt signal / dilutent only) (HSA): 0.8
ELISA Binding Ratio (expt signal / dilutent only) (Lambda): 1.1
ELISA Binding Ratio (expt signal / dilutent only), BVPscore (BVP): 1.1
koff [1]: 0.000177 s⁻¹
kon [1]: 3.38e+06 M⁻¹ s⁻¹
Kd [2]: 0.053 nM
ELISA Binding Ratio (expt signal / dilutent only) (IgG1k): 1.1
ELISA Binding Ratio (expt signal / dilutent only) [3]: 868

B2: anti-BCMA heavy chain-only antibody 308902, monovalent form (antibody, V domains shown)
VH: B1 VH
notes: Heavy chain-only antibody with no light chain; UniAbs were expressed in HEK cells with CH1 deleted; also called UniAb 308902 (monovalent)
koff [1]: 0.000719 s⁻¹
kon [1]: 923000 M⁻¹ s⁻¹
Kd [4]: 0.779 nM

Source: patent US20200157232A1 (TENEOONE, published 2020)
